Assay results reported in the supplement of paper PMC10567573.

B1: ZNF232 (parent)
chain: FPKSEQVYLHFLSVVTEDGPEPKD

Variants of: B1
Experiment: protein stability index of a GFP-peptide fusion (GPS, HEK-293T) (PSI 1-6); higher = more stable
Conditions: c terminus: a fixed tail appended
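Further: lentivirally expressed fusions sorted by FACS into six bins by GFP to DsRed ratio, PSI derived from sequencing read proportions per bin multiplied by bin number.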

Variant	protein stability index
FPKSEQVDLHFLSVVTEDGPEPKD [Y8D]	3.55
FPKSEQVELHFLSVVTEDGPEPKD [Y8E]	3.09
FPKSEQVFLHFLSVVTEDGPEPKD [Y8F]	1.88
FPKSEQVHLHFLSVVTEDGPEPKD [Y8H]	2.31
FPKSEQVLLHFLSVVTEDGPEPKD [Y8L]	2.14
FPKSEQVPLHFLSVVTEDGPEPKD [Y8P]	3.14
FPKSEQVTLHFLSVVTEDGPEPKD [Y8T]	2.13
FPKSEQVCLHFLSVVTEDGPEPKD [Y8C]	2.49
FPKSEQVYLHFLSVVTEDGPERKD [P22R]	1.9
FPKSEQVYLHFLSVVTEDGPELKD [P22L]	2.63
FPKSEQVYLHFLSVVTEDGPEGKD [P22G]	1.75
FPKSEQVYLHFLSVVTEDGPECKD [P22C]	1.34
FPKSEQVYLHFLSVVTEDGPEKKD [P22K]	1.67
FPKSEQVYLHFLSVVTEDGPETKD [P22T]	2
FPKSEQVYLHFLSVVTEDGPEEKD [P22E]	1.94
FPKSEQVYLHFLSVVTEDGPEHKD [P22H]	2.39
FPKSEQVYLHFLSVVTEDGPEQKD [P22Q]	1.75
FPKSEQVYLHFLSVVTEDGPEIKD [P22I]	2
FPKSEQVYLHFLSVVTEDGPEPKQ [D24Q]	2.95
FPKSEQVYLHFLSVVTEDGPEPKN [D24N]	1.82
FPKSEQVYLHFLSVVTEDGPEPKT [D24T]	1.75
FPKSEQVYLHFLSVVTEDGPEPKY [D24Y]	2.58
FPKSEQVYLHFLSVVTEDGPEPKR [D24R]	1.83
FPKSEQVYLHFLSVVTEDGPEPKG [D24G]	3.76

Variant	protein stability index
FPKSEQVYLHFLSVVTEDGPEPKA [D24A]	1.8
FPKSEQVYLHFLSVVTEDGPEPKV [D24V]	2.37
FPKSEQVYLHFLSVVTEDGPEPKC [D24C]	1.36
FPKSEQVYLHFLSVVTEDGPEPKI [D24I]	2.14
FWKSEQVYLHFLSVVTEDGPEPKD [P2W]	2.44
FCKSEQVYLHFLSVVTEDGPEPKD [P2C]	2.75
FEKSEQVYLHFLSVVTEDGPEPKD [P2E]	4.04
FIKSEQVYLHFLSVVTEDGPEPKD [P2I]	2.72
FVKSEQVYLHFLSVVTEDGPEPKD [P2V]	2.26
FGKSEQVYLHFLSVVTEDGPEPKD [P2G]	2.78
FTKSEQVYLHFLSVVTEDGPEPKD [P2T]	2.68
FLKSEQVYLHFLSVVTEDGPEPKD [P2L]	2.29
FPKSEQVYLHFLSVVTWDGPEPKD [E17W]	4.03
FPKSEQVYLHFLSVVTIDGPEPKD [E17I]	1.77
FPKSEQVYLHFLSVVTDDGPEPKD [E17D]	2.62
FPKSEQVYLHFLSVVTPDGPEPKD [E17P]	1.99
FPKSEQVYLHFLSVVTYDGPEPKD [E17Y]	2.15
FPKSEQVYLHFLSVVTNDGPEPKD [E17N]	1.66
FPKSEQVYLHFLSVVTTDGPEPKD [E17T]	2.08
FPKSEQVYLHFLSVVTFDGPEPKD [E17F]	2.38
FPKSEQVYLHFLSVVTEDGPEPAD [K23A]	2.66
FPKSEQVYLHFLSVVTEDGPEPGD [K23G]	1.83
FPKSEQVYLHFLSVVTEDGPEPDD [K23D]	1.82
FPKSEQVYLHFLSVVTEDGPEPVD [K23V]	2.14

Variant	protein stability index
FPKSEQVYLHFLSVVTEDGPEPID [K23I]	2.06
FPKSEQVYLHFLSVVTEDGPEPND [K23N]	1.69
FPKSEQVYLHFLSVVTEDGPEPMD [K23M]	2.22
FPKSEQVYLHFLSVVTEDGPEPHD [K23H]	1.84
FPKSEQVYLHFLSVVTEDGPIPKD [E21I]	2.33
FPKSEQVYLHFLSVVTEDGPYPKD [E21Y]	1.68
FPKSEQVYLHFLSVVTEDGPQPKD [E21Q]	1.71
FPKSEQVYLHFLSVVTEDGPNPKD [E21N]	2.12
FPKSEQVYLHFLSVVTEDGPKPKD [E21K]	2.07
FPKSEQVYLHFLSVVTEDGPHPKD [E21H]	2.02
FPKSEQVYLHYLSVVTEDGPEPKD [F11Y]	2.29
FPKSEQVYLHSLSVVTEDGPEPKD [F11S]	2.65
FPKSEQVYLHRLSVVTEDGPEPKD [F11R]	2.83
FPKSEQVYLHPLSVVTEDGPEPKD [F11P]	3.74
FPKSEQVYLHALSVVTEDGPEPKD [F11A]	2.49
FPKSEQVYLHCLSVVTEDGPEPKD [F11C]	1.76
FPKSEQVYLHGLSVVTEDGPEPKD [F11G]	3.61
FPKSEQVYLHWLSVVTEDGPEPKD [F11W]	2.08
FPKSEQVYLHFLSVVTEDHPEPKD [G19H]	2.32
FPKSEQVYLHFLSVVTEDEPEPKD [G19E]	2.43
FPKSEQVYLHFLSVVTEDKPEPKD [G19K]	2.71
FPKSEQVYLHFLSVVTEDRPEPKD [G19R]	2.45
FPKSEQVYLHFLSVVTEDVPEPKD [G19V]	1.5
FPKSEQVYLHFLSVVTEDMPEPKD [G19M]	2.05

Variant	protein stability index
FPKSEQVYLHFLSVVTEDQPEPKD [G19Q]	2.49
FPKSEQVYLHFLSVVTEDLPEPKD [G19L]	1.93
FPKSEQVYLHFQSVVTEDGPEPKD [L12Q]	3.99
FPKSEQVYLHFVSVVTEDGPEPKD [L12V]	2.48
FPKSEQVYLHFDSVVTEDGPEPKD [L12D]	3.67
FPKSEQVYLHFCSVVTEDGPEPKD [L12C]	2.07
FPKSEQVYLHFMSVVTEDGPEPKD [L12M]	3.84
FPKSEQVYLHFESVVTEDGPEPKD [L12E]	3.96
FPKSEQVYLHFLQVVTEDGPEPKD [S13Q]	1.53
FPKSEQVYLHFLCVVTEDGPEPKD [S13C]	2.31
FPKSEQVYLHFLGVVTEDGPEPKD [S13G]	1.5
FPKSEQVYLHFLMVVTEDGPEPKD [S13M]	1.96
FPKSEQVYLHFLRVVTEDGPEPKD [S13R]	1.98
FPKSEQVYLHFLDVVTEDGPEPKD [S13D]	3.54
FPKSEQVYLHFLAVVTEDGPEPKD [S13A]	1.89
FPKSEQVYLHFLFVVTEDGPEPKD [S13F]	1.66
FPKSEQVYLHFLYVVTEDGPEPKD [S13Y]	3.15
FPKSEQVYLHFLSCVTEDGPEPKD [V14C]	1.92
FPKSEQVYLHFLSSVTEDGPEPKD [V14S]	1.97
FPKSEQVYLHFLSWVTEDGPEPKD [V14W]	1.29
FPKSEQVYLHFLSDVTEDGPEPKD [V14D]	3.72
FPKSEQVYLHFLSKVTEDGPEPKD [V14K]	2.29
FPKSEQVYLHFLSHVTEDGPEPKD [V14H]	2.34
FPKSEQVYLHFLSIVTEDGPEPKD [V14I]	3.05

Variant	protein stability index
FPKSEQVYLHFLSPVTEDGPEPKD [V14P]	3.14
FPKSEQVYLHFLSRVTEDGPEPKD [V14R]	2.45
FPKSEQVYLHFLSMVTEDGPEPKD [V14M]	2.37
FPKSEQVYLHFLSTVTEDGPEPKD [V14T]	2.23
FPKLEQVYLHFLSVVTEDGPEPKD [S4L]	1.78
FPKMEQVYLHFLSVVTEDGPEPKD [S4M]	2.35
FPKDEQVYLHFLSVVTEDGPEPKD [S4D]	2.24
FPKCEQVYLHFLSVVTEDGPEPKD [S4C]	1.74
FPKNEQVYLHFLSVVTEDGPEPKD [S4N]	3.06
FPKHEQVYLHFLSVVTEDGPEPKD [S4H]	2.26
FPKYEQVYLHFLSVVTEDGPEPKD [S4Y]	3.17
FPKQEQVYLHFLSVVTEDGPEPKD [S4Q]	2.29
FPKAEQVYLHFLSVVTEDGPEPKD [S4A]	1.77
FPKSPQVYLHFLSVVTEDGPEPKD [E5P]	1.75
FPKSSQVYLHFLSVVTEDGPEPKD [E5S]	1.7
FPKSYQVYLHFLSVVTEDGPEPKD [E5Y]	1.19
FPKSMQVYLHFLSVVTEDGPEPKD [E5M]	2.04
FPKSLQVYLHFLSVVTEDGPEPKD [E5L]	2.47
FPKSWQVYLHFLSVVTEDGPEPKD [E5W]	2.02
FPKSAQVYLHFLSVVTEDGPEPKD [E5A]	2.29
WPKSEQVYLHFLSVVTEDGPEPKD [F1W]	3
MPKSEQVYLHFLSVVTEDGPEPKD [F1M]	4.15
EPKSEQVYLHFLSVVTEDGPEPKD [F1E]	4.82
RPKSEQVYLHFLSVVTEDGPEPKD [F1R]	3.89

Variant	protein stability index
VPKSEQVYLHFLSVVTEDGPEPKD [F1V]	3.92
FPKSEQVYLHFLSVVYEDGPEPKD [T16Y]	2.07
FPKSEQVYLHFLSVVWEDGPEPKD [T16W]	1.89
FPKSEQVYLHFLSVVVEDGPEPKD [T16V]	1.81
FPKSEQVYLHFLSVVPEDGPEPKD [T16P]	3.37
FPKSEQVYLHFLSVVHEDGPEPKD [T16H]	2.68
FPKSEQVYLHFLSVVEEDGPEPKD [T16E]	2.38
FPKSEQVYLHFLSVVSEDGPEPKD [T16S]	2.31
FPKSEQVYLHFLSVYTEDGPEPKD [V15Y]	2.43
FPKSEQVYLHFLSVHTEDGPEPKD [V15H]	2.4
FPKSEQVYLHFLSVETEDGPEPKD [V15E]	3.1
FPKSEQVYLHFLSVWTEDGPEPKD [V15W]	1.47
FPKSEQVYLHFLSVCTEDGPEPKD [V15C]	1.72
FPKSEQVYLHFLSVDTEDGPEPKD [V15D]	3.45
FPKSEQFYLHFLSVVTEDGPEPKD [V7F]	1.68
FPKSEQIYLHFLSVVTEDGPEPKD [V7I]	1.97
FPKSEQYYLHFLSVVTEDGPEPKD [V7Y]	1.02
FPKSEQPYLHFLSVVTEDGPEPKD [V7P]	2.97
FPKSEQKYLHFLSVVTEDGPEPKD [V7K]	3.21
FPKSEQLYLHFLSVVTEDGPEPKD [V7L]	2.32
FPKSEQDYLHFLSVVTEDGPEPKD [V7D]	1.91
FPKSEQNYLHFLSVVTEDGPEPKD [V7N]	2.27
FPKSEQEYLHFLSVVTEDGPEPKD [V7E]	2.8
FPKSEQVYLEFLSVVTEDGPEPKD [H10E]	3.46

Variant	protein stability index
FPKSEQVYLKFLSVVTEDGPEPKD [H10K]	2.73
FPKSEQVYLAFLSVVTEDGPEPKD [H10A]	3.29
FPKSEQVYLVFLSVVTEDGPEPKD [H10V]	1.94
FPKSEQVYLQFLSVVTEDGPEPKD [H10Q]	2.36
FPKSEQVYLRFLSVVTEDGPEPKD [H10R]	4.1
FPKSEQVYLMFLSVVTEDGPEPKD [H10M]	2.65
FPKSEQVYLIFLSVVTEDGPEPKD [H10I]	1.26
FPKSEQVYLPFLSVVTEDGPEPKD [H10P]	1.94
FPKSEQVYIHFLSVVTEDGPEPKD [L9I]	1.83
FPKSEQVYPHFLSVVTEDGPEPKD [L9P]	2.58
FPKSEQVYRHFLSVVTEDGPEPKD [L9R]	2.11
FPKSEQVYMHFLSVVTEDGPEPKD [L9M]	1.29
FPYSEQVYLHFLSVVTEDGPEPKD [K3Y]	2.02
FPVSEQVYLHFLSVVTEDGPEPKD [K3V]	2.33
FPASEQVYLHFLSVVTEDGPEPKD [K3A]	2.85
FPFSEQVYLHFLSVVTEDGPEPKD [K3F]	2.61
FPMSEQVYLHFLSVVTEDGPEPKD [K3M]	2.69
FPLSEQVYLHFLSVVTEDGPEPKD [K3L]	3.27
FPDSEQVYLHFLSVVTEDGPEPKD [K3D]	2.35
FPWSEQVYLHFLSVVTEDGPEPKD [K3W]	1.95
FPISEQVYLHFLSVVTEDGPEPKD [K3I]	2.23
FPNSEQVYLHFLSVVTEDGPEPKD [K3N]	2.71
FPKSEQVYLHFLSVVTEKGPEPKD [D18K]	1.58
FPKSEQVYLHFLSVVTESGPEPKD [D18S]	1.33

Variant	protein stability index
FPKSEQVYLHFLSVVTENGPEPKD [D18N]	1.71
FPKSEQVYLHFLSVVTELGPEPKD [D18L]	2.61
FPKSEQVYLHFLSVVTEAGPEPKD [D18A]	1.73
FPKSEQVYLHFLSVVTEMGPEPKD [D18M]	1.01
FPKSEQVYLHFLSVVTEQGPEPKD [D18Q]	1.77
FPKSEKVYLHFLSVVTEDGPEPKD [Q6K]	1.86
FPKSEDVYLHFLSVVTEDGPEPKD [Q6D]	2.87
FPKSETVYLHFLSVVTEDGPEPKD [Q6T]	2.37
FPKSEAVYLHFLSVVTEDGPEPKD [Q6A]	2.3
FPKSEYVYLHFLSVVTEDGPEPKD [Q6Y]	1.47
FPKSENVYLHFLSVVTEDGPEPKD [Q6N]	2.07
FPKSECVYLHFLSVVTEDGPEPKD [Q6C]	2.19
FPKSERVYLHFLSVVTEDGPEPKD [Q6R]	1.85
FPKSEMVYLHFLSVVTEDGPEPKD [Q6M]	1.6
FPKSEQVYLHFLSVVTEDGVEPKD [P20V]	1.76
FPKSEQVYLHFLSVVTEDGTEPKD [P20T]	2.72
FPKSEQVYLHFLSVVTEDGFEPKD [P20F]	1.44
FPKSEQVYLHFLSVVTEDGHEPKD [P20H]	2.28
FPKSEQVYLHFLSVVTEDGMEPKD [P20M]	2.11
FPKSEQVYLHFLSVVTEDGREPKD [P20R]	2.15
